Laboratory results: patent US20200308270A1 (Zymeworks, published 2020)

T1: recombinant human sFas receptor (human, UniProt P25445 17-173, limits assumed)
T1 construct: Bought reagent
T1 sequence (looked up): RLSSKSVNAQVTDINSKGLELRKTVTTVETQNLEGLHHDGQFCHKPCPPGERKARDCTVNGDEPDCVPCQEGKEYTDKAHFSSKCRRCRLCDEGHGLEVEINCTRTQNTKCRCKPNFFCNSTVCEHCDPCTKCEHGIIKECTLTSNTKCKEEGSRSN

T2: human recombinant FcgammaR receptor CD32aR (human, UniProt P12318 34-217, limits assumed)
T2 sequence (looked up): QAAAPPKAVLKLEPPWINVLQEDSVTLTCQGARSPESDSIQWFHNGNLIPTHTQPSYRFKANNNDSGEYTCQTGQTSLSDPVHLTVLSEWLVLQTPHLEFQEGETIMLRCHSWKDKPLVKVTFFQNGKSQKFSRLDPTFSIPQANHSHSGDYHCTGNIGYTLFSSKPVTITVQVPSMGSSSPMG


Legend:
[1] = molecular target: T1, recombinant human sFas receptor; assay: SPR (Biacore T200), Fas immobilized, Fab analyte
Experimental: Fas affinity determination was carried out as follows. Fas was diluted in 10 mM acetate buffer pH 5.5 and directly immobilized via amine coupling onto a CMS Series S sensor chip. […] The reference flow cell was left empty (ethanolamine blocked) to use as a blank control. Fabs were injected over both the ethanolamine-blocked reference surface and the Fas surface for kinetic analysis using single cycle kinetics. […] Fas surfaces were regenerated using 2 cycles of 10 mM glycine pH 1.5 for 120 s at 30 pt/min to prepare the surfaces for the next injection cycle. At least two mock-buffer injections were performed for each analyte injection to be used for referencing. The resulting single cycle kinetics sensorgrams were analyzed using Biacore T200 BiaEvaluation software version 3.0 and fit to the 1:1 binding model.

[2] = molecular target: T3, recombinant human HER3 (human, UniProt P21860 20-643); assay: SPR (ProteOn), Mab captured via anti-human Fc, HER3 analyte
T3 construct: Bought reagent
Experimental: HER3 affinity determination in Mabs was carried out as follows. The screening of Mabs for binding to HER3 antigen occurred in two steps: an indirect capture of Mabs onto the anti-human Fc-specific polyclonal antibody surface, followed by the injection of five concentrations of HER3. The anti-human Fc surface was prepared on a GLC sensorchip by amine coupling. GLC sensorchip surface was activated by a 1:10 dilution of the standard BioRad sNHS/EDC solutions injected for 140s at 100 pt/min in the analyte (horizontal) direction. Immediately after the activation, 25 microg/mL solution of anti-human Fc in 10 mM NaOAc pH 4.5 was injected in the ligand (vertical) direction at a flow rate of 25 microL/min for 240s until approximately 3000 resonance units (RUs) were immobilized. Remaining active groups were quenched by a 140s injection of 1M ethanolamine at 100 μL/min also in the analyte direction. Mabs for analysis were indirectly captured onto the anti-Fc surface by injecting 20 microg/mL solutions in the ligand (vertical) direction at a flow rate of 25 microL/min for 240s. HER3 was subsequently injected in the analyte (horizontal) direction. Firstly, two buffer injections for 30s at 100 microL/min in the analyte (horizontal) direction were used to stabilize the baseline. […] Sensorgrams were aligned and double-referenced using the buffer blank injection and interspots, and the resulting sensorgrams were analyzed using ProteOn Manager software v3.1. The double-referenced sensorgrams were fit to the Langmuir binding model.

[3] = molecular target: T4, human recombinant FcRn (human, UniProt P55899 24-297; P61769 21-119, limits assumed); assay: SPR (ProteOn), FcRn immobilized, Mab analyte, pH 5.8
T4 construct: also called neonatal receptor
Experimental: FcRn affinity determination was carried out as follows. FcRn surface was generated using a GLC sensorchip activated by a 1:10 dilution of the standard BioRad sNHS/EDC solutions injected for 140s at 100 μL/min in the ligand (vertical) direction. Immediately after the activation, 10 microg/mL solution of FcRn in 10 mM NaOAc pH 4.5 was injected in the ligand (vertical) direction at a flow rate of 25 microL/min for 120s until approximately 2000 resonance units (RUs) were immobilized. Remaining active groups were quenched by a 140s injection of 1M ethanolamine at 30 μL/min also in the ligand direction. The running buffer used on the FcRn surface was PBST pH 5.8. The screening of the Mabs for binding to FcRn was performed by injection of purified Mabs in the analyte (horizontal) direction. Firstly, two buffer injections for 30s at 100 microL/min in the analyte (horizontal) direction were used to stabilize the baseline. Five concentrations of a three-fold dilution series of each Mab starting at 100 nM with a blank buffer control were simultaneously injected at 50 microL/min for 120 s with a 10 minute dissociation phase, resulting in a set of binding sensorgrams with a buffer reference. […] Sensorgrams were aligned and double-referenced using the buffer blank injection and interspots, and the resulting sensorgrams were analyzed using ProteOn Manager software v3.1. The double-referenced sensorgrams were fit to the Langmuir binding model.

[4] = molecular target: T3, recombinant human HER3; assay: SPR
[5] = molecular target: T2, human recombinant FcgammaR receptor …; assay: SPR (ProteOn), Mab captured via anti-human Fc, FcgammaR analyte
Experimental: (§1) Goat polyclonal anti-human Fc antibody was purchased from Jackson Immuno Research Laboratories Inc. (West Grove, Pa.). […] Human recombinant FcγR receptors: CD16aV, CD32bF, CD32aR, and CD32aH were expressed as constructs containing a His10-tag at the C-terminus and purified by Ni-affinity chromatography followed by His-tag removal and SEC purification.
(§2) FcγR affinity determination was carried out as follows. The screening of Mabs for binding to various FcγR receptors occurred in two steps: an indirect capture of Mab samples onto the anti-human Fc-specific polyclonal antibody surface, followed by the injection of five concentrations of each of FcγR receptors. The anti-human Fc surface was prepared on a GLC sensorchip by amine coupling. GLC sensorchip surface was activated by a 1:10 dilution of the standard BioRad sNHS/EDC solutions injected for 140s at 100 μL/min in the analyte (horizontal) direction. Immediately after the activation, 25 microg/mL solution of anti-human Fc in 10 mM NaOAc pH 4.5 was injected in the analyte direction at a flow rate of 25 microL/min for 240s until approximately 4500 or 2500 resonance units (RUs) were immobilized. Remaining active groups were quenched by a 300s injection of 1M ethanolamine at 30 μL/min also in the analyte direction. Mabs for analysis were indirectly captured onto the anti-human Fc surface by injecting 10 microg/ml solutions in the ligand (vertical) direction at a flow rate of 25 microL/min for 240s. Each of the FcγR receptors was subsequently injected in the analyte (horizontal) direction. Firstly, two buffer injections for 30s at 100 microL/min in the analyte (horizontal) direction were used to stabilize the baseline. Five concentrations of a three-fold dilution series of each of the four FcγR receptors starting at 10 μM with a blank buffer control were then simultaneously injected at 50 microL/min for 120 s with a 3 minute dissociation phase, resulting in a set of binding sensorgrams with a buffer reference. […] Sensorgrams were aligned and double-referenced using the buffer blank injection and interspots, and the resulting sensorgrams were analyzed using ProteOn Manager software v3.1.

[6] = molecular target: human recombinant FcgammaR receptor CD16aV (human, UniProt P08637 17-208, limits assumed); assay: as above
Sequence of human recombinant FcgammaR receptor CD16aV (P08637 17-208 F176V limits assumed): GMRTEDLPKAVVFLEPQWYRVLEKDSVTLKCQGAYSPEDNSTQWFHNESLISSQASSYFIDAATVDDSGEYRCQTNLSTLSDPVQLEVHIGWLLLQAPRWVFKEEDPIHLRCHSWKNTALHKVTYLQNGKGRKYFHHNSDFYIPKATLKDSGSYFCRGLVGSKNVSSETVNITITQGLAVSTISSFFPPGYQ
Experimental: as §1, §2

Binder | Kd [1] [nM] | other results
EP6b_B01 designed Vlambda-Ckappa chimeric Fab, design 26 (E83V_D85T) (Fab, name in Kabat numbering, V domains shown) VH: QLQLQESGPGLVKPSETLSLTCTVSGASISANSYYGVWVRQSPGKGLEWVGSIAYRGNSNSGSTYYNPSLKSRATVSVDSSKNQVSLRLTSVTAADTALYYCARRQLLDDGTGYQWAAFDVWGQGTMVTVSS VL: QSVLTQPPSVSEAPRQTVTISCSGNSSNIGRYPVNWYQQLPGKAPKLLIYSDNLRFSGVPDRFSGSKSGTTASLAIRDLLSEDVATYYCSTWDDTLEGWVFGGGTKVTVLR | 0.0486 | –
EP6b_B01 designed Vlambda-Ckappa chimeric Fab, design 29 (E83V_D85T_T105E_V106I) (Fab, name in Kabat numbering, V domains shown) VH: QLQLQESGPGLVKPSETLSLTCTVSGASISANSYYGVWVRQSPGKGLEWVGSIAYRGNSNSGSTYYNPSLKSRATVSVDSSKNQVSLRLTSVTAADTALYYCARRQLLDDGTGYQWAAFDVWGQGTMVTVSS VL: QSVLTQPPSVSEAPRQTVTISCSGNSSNIGRYPVNWYQQLPGKAPKLLIYSDNLRFSGVPDRFSGSKSGTTASLAIRDLLSEDVATYYCSTWDDTLEGWVFGGGTKVEILR | 0.0479 | –
EP6b_B01 designed Vlambda-Ckappa chimeric Fab, design 32 (E83I_D85T) (Fab, name in Kabat numbering, V domains shown) VH: QLQLQESGPGLVKPSETLSLTCTVSGASISANSYYGVWVRQSPGKGLEWVGSIAYRGNSNSGSTYYNPSLKSRATVSVDSSKNQVSLRLTSVTAADTALYYCARRQLLDDGTGYQWAAFDVWGQGTMVTVSS VL: QSVLTQPPSVSEAPRQTVTISCSGNSSNIGRYPVNWYQQLPGKAPKLLIYSDNLRFSGVPDRFSGSKSGTTASLAIRDLLSEDIATYYCSTWDDTLEGWVFGGGTKVTVLR | 0.0471 | –
H3 Vlambda-Ckappa chimeric Mab (antibody, human IgG1, kappa, IgG1 Mab format; chimeric light chain without stabilizing substitutions; also called chimera) heavy: not shown light: QSALTQPASVSGSPGQSITISCTGTSSDVGGYNFVSWYQQHPGKAPKLMIYDVSDRPSGVSDRFSGSKSGNTASLIISGLQADDEADYYCSSYGSSSTHVIFGGGTKVTVLRTVAAPSVFIFPPSDEQLKSGTASVVCLLNNFYPREAKVQWKVDNALQSGNSQESVTEQDSKDSTYSLSSTLTLSKADYEKHKVYACEVTHQGLSSPVTKSFNRGEC | – | Kd [2]: 63 nM; Kd [3]: 74.6 nM; fold difference of KD against the wild-type lambda Mab control [4]: ≤ 1.5 fold; Kd [5]: 4100 nM; Kd [6]: 1200 nM

The remaining binders from weak to strong by Kd [1], led by results:

Kd [1] [nM] | Binder | other results
0.0546 | EP6b_B01 wild-type lambda Fab (Fab, V domains shown, Truncated heavy chain (VH-CH1-upper IgG1 hinge, no His tag) and wild-type lambda light chain; also called WT) VH: QLQLQESGPGLVKPSETLSLTCTVSGASISANSYYGVWVRQSPGKGLEWVGSIAYRGNSNSGSTYYNPSLKSRATVSVDSSKNQVSLRLTSVTAADTALYYCARRQLLDDGTGYQWAAFDVWGQGTMVTVSS VL: QSVLTQPPSVSEAPRQTVTISCSGNSSNIGRYPVNWYQQLPGKAPKLLIYSDNLRFSGVPDRFSGSKSGTTASLAIRDLLSEDEADYYCSTWDDTLEGWVFGGGTKVTVLG | –
0.0492 | EP6b_B01 designed Vlambda-Ckappa chimeric Fab, design 37 (E83A_D85T) (Fab, name in Kabat numbering, V domains shown) VH: QLQLQESGPGLVKPSETLSLTCTVSGASISANSYYGVWVRQSPGKGLEWVGSIAYRGNSNSGSTYYNPSLKSRATVSVDSSKNQVSLRLTSVTAADTALYYCARRQLLDDGTGYQWAAFDVWGQGTMVTVSS VL: QSVLTQPPSVSEAPRQTVTISCSGNSSNIGRYPVNWYQQLPGKAPKLLIYSDNLRFSGVPDRFSGSKSGTTASLAIRDLLSEDAATYYCSTWDDTLEGWVFGGGTKVTVLR | –
0.0484 | EP6b_B01 designed Vlambda-Ckappa chimeric Fab, design 34 (E83I_D85T_T105E_V106I) (Fab, name in Kabat numbering, V domains shown) VH: QLQLQESGPGLVKPSETLSLTCTVSGASISANSYYGVWVRQSPGKGLEWVGSIAYRGNSNSGSTYYNPSLKSRATVSVDSSKNQVSLRLTSVTAADTALYYCARRQLLDDGTGYQWAAFDVWGQGTMVTVSS VL: QSVLTQPPSVSEAPRQTVTISCSGNSSNIGRYPVNWYQQLPGKAPKLLIYSDNLRFSGVPDRFSGSKSGTTASLAIRDLLSEDIATYYCSTWDDTLEGWVFGGGTKVEILR | –
